Article PMC5514143, “A Drug Carrier for Sustained Zero-Order Release of Peptide Therapeutics” (Scientific Reports, 2017)

Legend:
[1] = Circular dichroism of PEG-sCT released from the film; format: physicochemical; conditions: CD 190-260 nm, room temperature, 0.1 cm path cell; release media
Protocol: UV-vis absorption spectra were recorded on a UV-1800 spectrophotometer (SHIMADZU, Japan). Fourier transform infrared (FTIR) spectra were measured on Bio-Rad FTS-6000 spectrometer. CD measurement was performed on a Biologic MOS-450 (Claix, France) at room temperature in a 0.1 cm path cell. The CD signals were recorded from 190 to 260 nm using a bandwidth of 4.0 nm and a scanning rate of 50 nm/min. SEM images were recorded on an FEI NanoSEM 430 Scanning Electron Microscope. Atomic force microscopy (AFM) images were acquired using a Benyuan CSPM5000s scanning probe microscope in tapping mode.

[2] = administered via injection; cited from earlier work
Description: The key goal of a release system is to maintain the plasma drug concentration within the therapeutic window for a prolonged period of time. For zero-order release carriers, as the drug is released at constant rate, it will be possible to maintain the plasma drug concentration constant. This will avoid a plasma drug concentration which is too high to exert toxic effects, or too low to fail to exert therapeutic effects, and therefore lead to the best outcome. As expected, for rats with implanted PEG-sCT/TA films, the plasma concentration of PEG-sCT remains almost constant (Fig. 7A). When a 20 bi ...

Question: With PEGylated salmon calcitonin [PEG-sCT] as the substance, how does the “secondary structure of PEG-sCT released from the film (CD spectra vs native drug)” value [1] read?
Answer: Its value is “remains unchanged”.

Question: And the “half-life of PEG-sCT” value [2]?
Answer: Its value is ~ 83 min.
